In US20070178531A1 (BIOCHECK, published 2007):
Residue numbers refer to the chain shown, from its start.

T1: Human Id1: Histidine (human, UniProt P41134 1-155, limits assumed)
T1 construct: Fusion protein made in E. coli from vector pGW07; also called h-Id1: his; not shown: His tag
T1 sequence (looked up): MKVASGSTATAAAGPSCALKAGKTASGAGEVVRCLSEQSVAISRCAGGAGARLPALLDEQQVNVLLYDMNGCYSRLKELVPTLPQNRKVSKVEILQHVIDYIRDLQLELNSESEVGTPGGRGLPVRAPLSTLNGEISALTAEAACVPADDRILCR

T2: Mouse Id2: Histidine (mouse, UniProt P41136 1-134, limits assumed)
T2 construct: Fusion protein made in E. coli from vector pGW07; also called m-Id2: His; not shown: His tag
T2 sequence (looked up): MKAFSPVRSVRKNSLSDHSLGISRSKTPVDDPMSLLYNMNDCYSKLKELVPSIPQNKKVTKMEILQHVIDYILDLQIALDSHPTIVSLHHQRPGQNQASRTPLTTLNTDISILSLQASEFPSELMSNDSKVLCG

T3: Human Id2: Histidine (human, UniProt Q02363 1-134, limits assumed)
T3 construct: Fusion protein made in E. coli from vector pGW07; also called h-Id2: His; not shown: His tag
T3 sequence (looked up): T2 sequence (looked up) with T60S, V131A

T4: Mouse Id1: Histidine (mouse, UniProt P20067-2 1-148, limits assumed)
T4 construct: Fusion protein made in E. coli from vector pGW07; also called m-Id1-His; not shown: His tag
T4 sequence (looked up): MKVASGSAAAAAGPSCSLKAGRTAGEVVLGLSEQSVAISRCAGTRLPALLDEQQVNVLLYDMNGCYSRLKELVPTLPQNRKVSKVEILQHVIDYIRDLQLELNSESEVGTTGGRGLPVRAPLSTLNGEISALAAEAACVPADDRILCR

T5: Mouse Id3: Histidine (mouse, UniProt P41133 1-119)
T5 construct: Fusion protein made in E. coli from vector pGW07; also called m-Id3: His; Mouse Id3 (coated wells); not shown: His tag
T5 sequence: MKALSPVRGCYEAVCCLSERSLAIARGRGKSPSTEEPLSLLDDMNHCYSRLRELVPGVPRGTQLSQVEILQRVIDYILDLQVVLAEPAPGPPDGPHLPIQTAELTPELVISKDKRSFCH

T6: Human Id3: Histidine (human, UniProt Q02535 1-119 at identity 1.00))
T6 construct: Fusion protein made in E. coli from vector pGW07; also called h-Id3: His; Human Id3 (coated wells); not shown: His tag
T6 chain: T5 sequence with S31G, S33A, T34A, T105A, K112N

B1: rabbit monoclonal anti-human Id3, clone #BCH-4/#3-3 (antibody, V domains shown)
VH: QSVEESGGRLVTPGTPLTLTCTVSGIDLSSYAMSWVRQAPGKGLEWIGVIFPSNNVYYASWAKGRFTISKTSTTVDLKITSPTTEDTATYFCASMGAFDSWGPGTLVTVSS
VL: QVLTQTPSPVSAAVGGTVTINCQASQSIYNDNDLAWFQQKPGQPPKLLIYDASTLTSGVPSRFKGSGSGTQFTLTISDLDCDDAATYYCAARYSGNIYGFGGGTEVVVK
notes: Rabbit IgG from a rabbit hybridoma; also called h Id3 MoAb 3-3
B2: rabbit monoclonal anti-mouse/human Id3, clone #BCH-4/#16-1 (antibody, V domains shown)
VH: QSVEESGGRLVTPGTPLTLTCTASGFSLSSYYIHWVRQAPGKALEWIGYISDGGTTYYASWAKGRFTISKTSSTTVDLKMTSLTTEDTATYFCARQGFNIWGPGTLVTVSL
VL: AVLTQTPSPVSAAVGGTVTISCQSSQSVYNNNWLSWFQQKSGQPPKLLIYETSKLESGVPSRFKGSGSGTQFTLTIIDVQCDDAATYYCLGGYWTTSDNNIFGGGTEVVVK
notes: Rabbit IgG from a rabbit hybridoma; also called m/h Id3 MoAb 16-1
B3: rabbit monoclonal anti-mouse/human Id3, clone #BCH-4/#6-1 (antibody, V domains shown)
VH: B2 VH with S30N, Y31V, A43G, G54D, T56A, Y57R, S60T, D77N
VL: B2 VL with T19S, Y29W, S41P, I77S, I101V
notes: Rabbit IgG from a rabbit hybridoma; also called m/h Id3 MoAb 6-1
B4: rabbit monoclonal anti-mouse/human Id3, clone #BCH-4/#17-3 (antibody, V domains shown)
VH: B2 VH with S30N, Y31V, A43G, G54D, T56A, Y57R, S60T, D77N
VL: B2 VL with T19S, Y29W, S41P, I77S, I101V
notes: Rabbit IgG from a rabbit hybridoma; also called m/h Id3 MoAb 17-3; BCH-3/#17-3
B5: rabbit monoclonal anti-mouse/human Id3, clone #BCH-4/#42-1 (antibody, V domains shown)
VH: B2 VH
VL: B2 VL with T95S
notes: Rabbit IgG from a rabbit hybridoma; also called m/h Id3 MoAb 42-1

Columns and labels:
Human Id1: Histidine = target: T1, Human Id1: Histidine; test: ELISA, Ab 0.025 µg/ml
Procedure: (§1) The rabbit monoclonal anti-human Id3 (clone #3-3) and the rabbit monoclonal anti-mouse/human Id3 (clones #6-1, 16-1, 17-3, and 42-1) produced in Example 6 were tested reactivity against the following antigens: mouse Id1:His, human Id1:His, mouse Id2:His, human Id2:His, mouse Id3:His, human Id3:His, mouse Id4:His, human Id4:His and GST.
(§2) 1. Microtiter wells (prepared in accordance with Example 6) were coated (0.1 μg/well) with mouse Id1:His, human Id1:His, human Id2:His, human Id3:His, and 1.0 μg/well with GST. [0155] 2. Antibody Diluent: 0.25% (w/v) BSA in 0.015M KPO₄ Buffer, 0.85% (w/v) NaCl, 0.1% (w/v) NaN₃, pH=7.40 [0156] 3. Rabbit monoclonal anti-human Id3 (clone #3-3) prepared in Example 7 was diluted to […] with the antibody diluent. […] 4. Rabbit monoclonal anti-mouse/human Id3 (clones #6-1, 16-1, 17-3, 42-1) prepared in Example 7 was diluted to 0.005, 0.010, 0.025, 0.05, 0.10, 0.25, and 0.50 μg/ml with the antibody diluent. […] 5. Conjugate Diluent: 50% (v/v) which consists of an aqueous solution containing Fetal Bovine Serum in 0.05 M Tris, 1% (v/v) Proclin-300, pH 7.6. [0159] 6. Conjugate: Goat anti-rabbit IgG (H+L)-HRP conjugate. [0160] 7. TMB reagent. […] 8. Stop solution (1 N HCI). Method
(§3) 1. Dispense 100 μL of antibody diluent, diluted rabbit monoclonal human Id3, and mouse/human Id3 hybridoma supernatants into appropriate wells. […] 2. Incubate at room temperature with mechanical shaking at 750 rpm for 90 minutes. [0165] 3. Remove the incubation mixture by flicking plate content into an appropriate waste container followed by rinsing the wells 5 times with distilled water. [0166] 4. Strike the wells sharply onto absorbent paper or paper towels to remove all residual water droplets. [0167] 5. Dispense 100 μL of 1:50,000 Goat Anti-Rabbit IgG-HRP Conjugate Reagent into each well. Gently mix for 5 seconds. [0168] 6. Incubate at room temperature with mechanical shaking at 750 rpm for 90 minutes. [0169] 7. Repeat procedures 3 and 4. [0170] 8. Dispense 100 μL of TMB Reagent into each well. Gently mix for 5 seconds. [0171] 9. Incubate at room temperature with mechanical shaking at 750 rpm for 20 minutes. […] 10.

Mouse Id2: Histidine = target: T2, Mouse Id2: Histidine; test: ELISA, Ab 0.025 µg/ml
Procedure: as §1, §2, §3

Human Id2: Histidine = target: T3, Human Id2: Histidine; test: ELISA, Ab 0.025 µg/ml
Procedure: as §1, §2, §3

Mouse Id1: Histidine = target: T4, Mouse Id1: Histidine; test: ELISA, Ab 0.025 µg/ml
Procedure: as §1, §2, §3

Mouse Id3: Histidine [1] = target: T5, Mouse Id3: Histidine; test: ELISA, Ab 0.025 µg/ml
Procedure: as §1, §2, §3

Human Id3: Histidine = target: T6, Human Id3: Histidine; test: ELISA, Ab 0.025 µg/ml
Procedure: as §1, §2, §3

Mouse Id3: Histidine [2] = target: T5, Mouse Id3: Histidine; test: ELISA, Ab 0.100 µg/ml
Procedure: as §1, §2, §3

| Binder | A450 (Human Id1: Histidine) | A450 (Mouse Id2: Histidine) | A450 (Human Id2: Histidine) | A450 (Mouse Id1: Histidine) | A450 (Mouse Id3: Histidine [1]) | A450 (Human Id3: Histidine) | A450 (Mouse Id3: Histidine [2]) |
| --- | --- | --- | --- | --- | --- | --- | --- |
| B1 | 0.049 A450 | 0.048 A450 | 0.044 A450 | 0.044 A450 | – | – | – |
| B2 | 0.046 A450 | 0.051 A450 | 0.045 A450 | 0.044 A450 | 0.953 A450 | 0.802 A450 | 2.28 A450 |
| B3 | 0.048 A450 | 0.048 A450 | 0.045 A450 | 0.046 A450 | 1.13 A450 | 0.974 A450 | 2.56 A450 |
| B4 | 0.047 A450 | 0.05 A450 | 0.054 A450 | 0.045 A450 | 1.4 A450 | 1.27 A450 | 2.91 A450 |
| B5 | 0.043 A450 | 0.052 A450 | 0.071 A450 | 0.045 A450 | 1.58 A450 | 1.44 A450 | 2.87 A450 |
